Data published in publication PMC3843637.
“And” between values parts separate entries of the source, which are not always exact repeats. Equal values may be shown once.

Experiments:
[1] = molecular target: S3LMH2EEE/S4LMH2 heterotrimer (human) (UniProt P84022); assay: ITC
[2] = molecular target: phosphomimetic Smad3 fragment S3LMH2EEE (linker and MH2 domain, amino acids 167 to 425) (human) (UniProt P84022); assay: ITC

Kd [1]: 1500 nM and 1370 nM
Kd [2]: 1170 nM and 1350 nM
B1: MAN1 fragment from amino acids 755 to 911 (MAN1Luhm) (domain or fragment)
chain: DKILVIPSKVWQGQAFHLDRRNSPPNSLTPCLKIRNMFDPVMEIGDQWHLAIQEAILEKCSDNDGIVHIAVDKNSREGCVYVKCLSPEYAGKAFKALHGSWFDGKLVTVKYLRLDRYHHRFPQALTSNTPLKPSNKHMNSMSHLRLRTGLTNSQGSS
